The text below walks through data of paper PMC10313831.

This data set addresses RPA-MeGFP (Saccharomyces cerevisiae) (UniProt P22336+P26754+P26755). Nature of the data set: single-molecule ssDNA curtains (TIRFM). The note with it: 10 pM then 100 pM RPA; EMSA: 20 mM Tris-HCl pH 7.5, 150 (or 15) mM KCl, 1 mM DTT, 100 ug/mL BSA, 5 nM DNA, 30 C 10 min; curtains: 40 mM Tris-HCl pH 7.5, 150 or 15 mM NaCl, 2 mM …. (In general: In EMSA bound probe runs differently from free probe, usually more slowly.)

RPA-MeGFP (Saccharomyces cerevisiae), sequence (P22336 whole entry, chain 1 of 3): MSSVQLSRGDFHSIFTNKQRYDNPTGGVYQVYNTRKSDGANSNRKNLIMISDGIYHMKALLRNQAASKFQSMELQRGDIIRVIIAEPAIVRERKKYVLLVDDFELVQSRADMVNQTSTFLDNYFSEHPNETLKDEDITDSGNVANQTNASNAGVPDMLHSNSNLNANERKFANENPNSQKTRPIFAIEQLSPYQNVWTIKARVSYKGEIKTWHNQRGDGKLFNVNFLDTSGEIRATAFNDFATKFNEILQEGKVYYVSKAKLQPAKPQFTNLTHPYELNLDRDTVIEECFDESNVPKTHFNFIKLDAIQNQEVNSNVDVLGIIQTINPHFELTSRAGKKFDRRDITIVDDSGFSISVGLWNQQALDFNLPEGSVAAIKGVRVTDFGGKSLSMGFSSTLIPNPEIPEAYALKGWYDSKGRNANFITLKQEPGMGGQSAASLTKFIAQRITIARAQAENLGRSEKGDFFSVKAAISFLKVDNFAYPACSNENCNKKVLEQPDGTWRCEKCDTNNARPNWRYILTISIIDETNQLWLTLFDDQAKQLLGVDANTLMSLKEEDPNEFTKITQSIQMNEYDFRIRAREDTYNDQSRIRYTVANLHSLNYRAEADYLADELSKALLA
RPA-MeGFP (Saccharomyces cerevisiae), sequence (P26754 whole entry, chain 2 of 3): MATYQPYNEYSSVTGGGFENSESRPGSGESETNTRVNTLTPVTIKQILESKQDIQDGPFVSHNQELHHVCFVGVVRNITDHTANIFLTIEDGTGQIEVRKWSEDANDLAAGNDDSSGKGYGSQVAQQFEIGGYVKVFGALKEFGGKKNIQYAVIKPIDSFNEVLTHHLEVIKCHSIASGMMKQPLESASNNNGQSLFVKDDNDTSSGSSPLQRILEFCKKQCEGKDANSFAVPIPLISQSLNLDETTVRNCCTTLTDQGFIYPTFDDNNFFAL
RPA-MeGFP (Saccharomyces cerevisiae), sequence (P26755 whole entry, chain 3 of 3): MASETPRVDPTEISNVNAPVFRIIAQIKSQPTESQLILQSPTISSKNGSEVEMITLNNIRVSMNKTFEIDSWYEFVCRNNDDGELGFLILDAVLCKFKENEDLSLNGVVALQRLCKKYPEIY

M13 ssDNA displayed a binding signal (% length extension) of 359.
